Results published in the supplement of paper PMC12042874.
± gives the uncertainty stated by the source.

Test: amyloid nucleation score (Sup35N fusion, yeast selection) (log enrichment); library NNK1; higher = more nucleation; inactive = no reads after selection
In short: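 For the nucleation score, DiMSum gave the log enrichment of output over input reads, centred on the mode score of non-aggregating sequences. Psi-negative yeast expressing Sup35N fused to peptides of 20 random codons were induced with 100 μM copper sulfate for 24 hours and grown 7 days at 30°C on medium lacking adenine and uracil. Input and output plasmid inserts were Illumina-sequenced, and sequences with under 100 input reads were excluded.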

Substance	amyloid nucleation score
FYGCFRVHCVISMLGWR	0.109 ± 0.36
FYGMDLSVSRFF	0.031 ± 0.47
FYIVCRNFKTYLPSLGF	-1.12 ± 2.4
FYKTL	-1.19 ± 1.2
FYPLVTFFVLHHGNMNIHRV	6.778 ± 0.066
FYPYN	0.743 ± 0.79
FYSFWMGRTCMFIVTRVNSA	-0.091 ± 0.31
FYSMSGWYSTVKGVCIRTLT	1.02 ± 0.35
FYTISFLAIIATENIFCSSS	4.42 ± 0.053
FYVMSMLIM	0.029 ± 0.47
FYYGSVSLSWF	inactive
GAFEGVFHRVMSDGRGAFAR	-0.289 ± 0.42
GAFRVVSQHRASDVS	-0.116 ± 0.41
GAKEDERSNWSVVNMLGREL	-0.341 ± 0.39
GAKFSTVSRENDDMHFAWLW	1.19 ± 0.97
GARVTLYAVS	-0.475 ± 0.36
GCGFSWSLCGESPYAVRPVA	0.538 ± 0.55
GCKGGSATCSTRTWMCSWGG	2.27 ± 0.12
GCTGPHFVYTDGRMHWSGSS	-0.529 ± 0.49
GCTRNCSKCKGMHSQRHPYP	-0.837 ± 2.4
GDDLQFT	1.88 ± 0.69
GDLSLRLLG	0.419 ± 0.66
GDSMV	-0.606 ± 0.4
GDYSCPLGNIINHDPMLFRW	0.107 ± 0.23
GEGICL	-0.012 ± 1.1

Substance	amyloid nucleation score
GERGQFTILISYMALRDRLM	2.45 ± 0.13
GEYRDGFSLRVMGLHGSLNH	1.07 ± 0.58
GFCLVVLGYCFYMFYATNNS	0.042 ± 0.9
GFNDGVVR	0.874 ± 0.55
GFNKR	-0.991 ± 2.4
GFPRCVWFNSSVIQESSFFV	0.571 ± 1.2
GFSILAPSKYVVNYWMHPQS	7.691 ± 0.049
GFSIYRCHYFSGRMVTNVSM	-0.475 ± 1.7
GFTDYNRVRYKVLTVVFDYG	-1.51 ± 0.95
GFTYTC	-0.915 ± 1.1
GFVGYNCLCFCKSVA	-1.05 ± 0.84
GFWQLFLRVIPLFSVGYSNC	0.875 ± 0.69
GFYGRICL	0.101 ± 0.46
GGAQMVHTSQSRCAARGV	-0.831 ± 0.7
GGGSMAGAERPGGLGQVRCN	1.2 ± 0.6
GGMIAIKHKFIYYDLELWGY	-0.94 ± 0.43
GGMLQLSSSDFTRWAQEWSI	0.355 ± 0.73
GGNDHVANLTCNNVAGSRGT	4.33 ± 0.14
GGPVREYTRMSPSVGVLDEA	0.489 ± 0.86
GGSMGHPGTLMERSYNLVVA	0.951 ± 0.46
GGSVRRDQMVYREDMQSNST	-0.746 ± 0.93
GGSYKEYTLCKHTAP	0.506 ± 0.67
GGTSRLQDVDAALTGTWVSP	0.042 ± 0.37
GGWDAGGGHAIRRIVECMVR	0.601 ± 1.1
GGYGERRDVVVDRSYTVDTG	0.071 ± 0.62

Substance	amyloid nucleation score
GGYGSIECFRSLVREKCCSV	0.086 ± 0.62
GGYMGL	-0.158 ± 0.35
GGYVLPYSLFFGVPSIAFVG	0.602 ± 0.7
GHKNTRILQV	-0.444 ± 1.9
GHLQGPLSTLIHDW	0.564 ± 0.47
GHSFGTVTDCVANQYNFLNI	2.37 ± 0.19
GHSRRLYCGLEAGARCGFSR	-0.455 ± 1.5
GHTRR	-0.062 ± 0.41
GHWLRQVSRRLVPADDCMVQ	inactive
GIAWALKLRLVDAYPGMSMS	0.168 ± 0.72
GICLIAVVRGLIERGNGETE	0.206 ± 1.1
GIDTKDFFVAGMLGCVEGMD	0.245 ± 0.7
GIGAGYKFNDTVFSEGCSSG	0.653 ± 0.93
GIISFANRQSF	7.944 ± 0.044
GILMVELWSRR	2.56 ± 0.18
GIRSLFGGKCWDHGSFMWKF	-0.195 ± 0.54
GISFWSLGC	1.07 ± 0.84
GITIITFIDGSLLGRDFPCW	2.14 ± 0.26
GIVSAESWSLLQDRHFGAVK	0.578 ± 0.55
GIWPLGFGKFGSIFRFANVR	0.939 ± 0.6
GKFSKDKILLVSYHKAF	0.886 ± 0.39
GKHLTRNAWGRLSLVTDCVR	0.486 ± 0.5
GKKTRRLYVKWSSSFLNWMK	0.28 ± 0.85
GKLDCVKVLNVHCP	0.527 ± 0.61
GKNFYREDAVSVCRWL	0.342 ± 0.64

Substance	amyloid nucleation score
GKPVDRLS	0.066 ± 0.28
GKSEVLTFGEGAHVGRSRFY	0.367 ± 0.46
GKWFVKRGRIRSAENCIRLF	-0.785 ± 1.1
GLACYM	0.413 ± 0.4
GLCNGCIFWRVKRIKGLKWF	-0.381 ± 0.22
GLGGYT	-0.155 ± 0.49
GLGVVPITAERRVSLRYSEC	-0.242 ± 0.35
GLICNIDVRMRFVFMVRGSP	2.45 ± 0.21
GLLETYDWAVQWTGHLEC	0.168 ± 0.89
GLLIFMITTLPFCFWCTVPR	inactive
GLLMISISYLITRMVFMDNI	0.412 ± 0.39
GLMDRRTFITICVYPFMESW	4.37 ± 0.071
GLRVLFGLLGVCPCRDSQWG	inactive
GLSGSLSSVIYSSEVRSR	0.036 ± 0.29
GLTGLTLWARATRRRVGTLS	-0.153 ± 0.59
GLTWKTFPSCPMSENNCIRH	0.133 ± 0.79
GLVHMPGHLRVLRQLLSA	0.377 ± 0.56
GLWFVC	0.374 ± 0.75
GLWQWAIHLRWIGIEHTQTR	0.295 ± 0.97
GLYTLSHHGCNAQGWVRDGS	0.324 ± 0.45
GMAVNGYHSLRGKVLEDVGN	-0.289 ± 0.79
GMCIRNRMRDNVNSLSSACD	0.362 ± 1.4
GMHLNCHGCILSSV	-0.021 ± 0.77
GMSCWGLCSYNTRAYRNNPT	-0.151 ± 0.63
GMSPPSNSFFSFCFTGLVKF	0.319 ± 0.61

Substance	amyloid nucleation score
GMYPGESSWKLEKEVIL	0.539 ± 0.6
GNFHQPFFLMVVFQHARAPL	6.291 ± 0.054
GNIDGICERSCNRFANYIQG	1.11 ± 0.49
GNSRQYAFNRQIHMSSGESR	-0.535 ± 0.66
GNWASIWPLGFELLSYICQE	-0.866 ± 0.49
GNYNSPFFRGSVNWNWCM	0.485 ± 1.2
GNYVVVVGYN	0.326 ± 0.5
GPDNVCCGSRPKISDVGYGM	inactive
GPFIVIPK	-0.149 ± 0.64
GPHLIKVCFSEPMGFKVFLL	2.12 ± 0.14
GPNTPSWYGCL	0.196 ± 0.6
GPPRN	0.681 ± 0.65
GPRFNVALES	-0.347 ± 0.38
GPRHYKVFHSYSAFGGYSVC	1.01 ± 0.81
GPSLFG	0.121 ± 0.37
GPVRQHCYCDMTTVFRILGA	-1.55 ± 1.4
GPWAGVRVRSTCLVRYSWYG	0.242 ± 0.44
GQPVFSLDCIYYLLYCFDAT	0.595 ± 0.6
GQRLLL	1.07 ± 0.56
GQTLALSYFTVLFSPMLNEW	0.169 ± 1
GQWGVVHIQQGVQYCATIRG	0.331 ± 0.69
GRCVNVSCHIRRPQVGTPRA	1.07 ± 0.8
GRDDSGWPSVVVWSPGADQA	0.243 ± 0.56
GRDLPYMTRRNTLWSSKVVF	0.206 ± 0.35
GRFSVVAISHKQTFNFDWRT	8.058 ± 0.072

Substance	amyloid nucleation score
GRGTRLYVRRQW	0.39 ± 0.28
GRGVLSSPSALGRFSLTEGM	-0.444 ± 0.44
GRLMTFSINRRNVWKCDGSR	-0.207 ± 1.1
GRLPLTKWASMTRVLMYLLR	0.652 ± 0.47
GRMAMWYGTPKGGCCHKSLY	inactive
GRMSRMILD	-0.407 ± 0.69
GRMTVRNCGQDPLVFRTYQG	-1.13 ± 2.7
GRSYFVVGFLSELCEKWLTK	0.046 ± 1
GSCDMKVVVKCHCEYGMKQD	2.24 ± 0.13
GSCDYRFYNQLGEWNGYRMA	-0.348 ± 0.49
GSERPNPV	0.958 ± 0.63
GSFVGRR	0.241 ± 0.46
GSGNSHLLYRSSNRCLVLYR	-0.134 ± 0.32
GSGSVHSWHSLINSSDIFVT	-0.682 ± 0.81
GSIQDVIRLAIDVGRAALTE	0.684 ± 0.55
GSLAW	-0.972 ± 0.94
GSMSGTTDIPC	-0.158 ± 0.51
GSPVCTRRRPASLPPLRQVH	0.208 ± 0.45
GSRNNWKTPWSDNHGTLWRC	-0.298 ± 0.47
GSRVVQRYVAVHACVHERVT	0.589 ± 0.4
GSSDPHVLVN	0.341 ± 0.26
GSSQWFRQVLYFRQSPGWGS	-0.33 ± 0.65
GSSTVNL	-0.345 ± 1.7
GSTQPCRNTFLLFLPALTIP	inactive
GSTRYHAKMDPGWVRFT	-0.482 ± 1.7

Substance	amyloid nucleation score
GSVRRKRHGHLDV	inactive
GTDRSLAVIFKARCWFWATR	-1.14 ± 1.7
GTFAWGHRFYVIAAYFILYD	inactive
GTKWVTLQRGGRLGMGRRSD	0.562 ± 1.2
GTLDDTGVTDDNFI	1.19 ± 0.4
GTLHSKCRGICLDCVAIVIL	-0.092 ± 0.39
GVDMRYFGPYAGYADYSKSR	-0.846 ± 0.44
GVDRVRQCRARALDFSIGS	-0.372 ± 0.62
GVFVKGWYWKWGMGDELQAA	0.182 ± 0.79
GVGVCYFSC	2.2 ± 0.22
GVKQEHVIPWQEVLGVITL	1.01 ± 0.84
GVKTAYGNHAMWRDAVSRRG	0.15 ± 0.57
GVMPWLR	-0.123 ± 0.99
GVTHKDMSNDYFMGD	-0.285 ± 0.47
GVVITSPWGA	1.18 ± 0.85
GVVSFNFDSLQF	-0.471 ± 0.65
GWIRPVAKSRLWSFSPMEMI	-0.768 ± 0.62
GWKVCN	0.362 ± 1.4
GWLTYSPRSALIDHERRSLQ	0.879 ± 0.15
GWQRSRVAVAPVVVTQSCGV	-0.671 ± 1.6
GWSNSFA	0.123 ± 0.44
GWVMLTCIRNAGVNLRPGSR	1.58 ± 0.53
GWYEMASAHHMTDWYGW	-0.337 ± 0.51
